From the supplement of paper PMC7125110
± gives the standard error. This sample holds only a part of the variants without activity.

B1: glmS ribozyme (parent)
chain: AUAAAAGCGCCAGAACUACAGAAAUGUAGUUGACGAGGAGGAGGUUUAUCGAAUUUUCGGCGGAUGCCUCCAAA

How the values were obtained:
Settings in all cases: with glucosamine-6-phosphate
glucosamine-6-phosphate [1] = variants of: B1; experiment: self-cleavage kobs at 640 uM GlcN6P; higher = faster cleavage; RNA array
How it was run: (§1)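 kobs was derived by fitting per-tile medians to one- or two-exponential decays after normalising signals to baseline and to non-cleaving reference variants. Those signals came from barcoded ribozyme variants transcribed in situ by E. coli RNA polymerase on sequenced MiSeq chips, followed through a hybridised Cy3 probe at 37 °C and imaged over ~14 h. Glucosamine-6-phosphate (40 μM to 10 mM) in HEPES/KCl/Mg(OAc)2 buffer was flowed in. Weighted Michaelis–Menten fits across concentrations then gave kcat and KM.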

glucosamine-6-phosphate [2] = variants of: B1; experiment: self-cleavage kobs at 2500 uM GlcN6P; higher = faster cleavage; RNA array
How it was run: as §1

glucosamine-6-phosphate [3] = variants of: B1; experiment: self-cleavage kobs at 10000 uM GlcN6P; higher = faster cleavage; RNA array
How it was run: as §1

Variant | self-cleavage kobs at 640 uM GlcN6P (glucosamine-6-phosphate [1]) [s⁻¹] | self-cleavage kobs at 2500 uM GlcN6P (glucosamine-6-phosphate [2]) [s⁻¹] | self-cleavage kobs at 10000 uM GlcN6P (glucosamine-6-phosphate [3]) [s⁻¹]
A15G U45C C71U | 0.000376 ± 0.00017 | 0.000625 ± 0.0003 | 
A15U G37A | 0.000117 ± 2.4e-05 | 0.000103 ± 2.8e-05 | 0.000568 ± 0.00011
A15C G32A U55C G59U | < 1e-05 |  | 
C16G A39C G41U U56C C67U | < 1e-05 |  | 
G26U G32U | 0.000131 ± 4.5e-05 | 0.000943 ± 0.00021 | 
G13U G60U C70U | < 1e-05 |  | 
G29C U31C G35U | < 1e-05 | < 1e-05 | 
A14U U31A G37C G59C | < 1e-05 | < 1e-05 | 
G13U C58A U69A | 6.33e-05 ± 2e-05 |  | 
A14U U31A G32U C67U | 5.86e-05 ± 2.4e-05 | 0.000276 ± 7.5e-05 | 
G13C U30A G41U G63A A64C | < 1e-05 | < 1e-05 | 
A14G G37A A52G | 5.33e-05 ± 1.3e-05 | 9.21e-05 ± 2e-05 | 
C16A U55G C58G U65G | < 1e-05 |  | 
A14C C50A C61A | 4.16e-05 ± 1.7e-05 |  | 
A14U A42C G51U | < 1e-05 |  | 
G13U G40A | 5.97e-05 ± 1.3e-05 | 6e-05 ± 1.2e-05 | 0.000183 ± 3.6e-05
A15U A36C G44U C58G G59C C61U G63U U69A | < 1e-05 |  | 
G29A A53G C68G | 7.36e-05 ± 2.4e-05 | 7.42e-05 ± 2e-05 | 
A14U U46A C68U | 4.63e-05 ± 1.7e-05 | 0.000119 ± 2e-05 | 
U30C G43A C71U | < 1e-05 |  | 
C16U G66U C68G | 0.000124 ± 4.1e-05 |  | 
C16U C58U G63U | < 1e-05 |  | < 1e-05
U30A U46G C67U | 0.000117 ± 3.4e-05 | 0.00027 ± 0.0001 | 
G13C G38U U56G G63U U69C | < 1e-05 | < 1e-05 | 
U30C G41C C71U | < 1e-05 |  | 

Variant | self-cleavage kobs at 640 uM GlcN6P (glucosamine-6-phosphate [1]) [s⁻¹] | self-cleavage kobs at 2500 uM GlcN6P (glucosamine-6-phosphate [2]) [s⁻¹] | self-cleavage kobs at 10000 uM GlcN6P (glucosamine-6-phosphate [3]) [s⁻¹]
U30C A36C G40U | < 1e-05 | < 1e-05 | 
G29U A39G A53U | 0.00124 ± 0.00019 |  | 
G29C G51U C61G C70A | 9.9e-05 ± 3.7e-05 | 7.11e-05 ± 2.2e-05 | 
A14C C34A U46A | < 1e-05 |  | 
A15G G29U C70G | 0.000143 ± 5e-05 | 9.63e-05 ± 3.6e-05 | 
A15G G29U C70U | 0.000127 ± 2.4e-05 | 9.76e-05 ± 3.9e-05 | 
C16U A48C G62U | < 1e-05 | < 1e-05 | 
A14U U30C C70G | 9.88e-05 ± 3e-05 | 8.37e-05 ± 2.2e-05 | 
A14U A53U C67G | 0.000162 ± 4.5e-05 |  | 
U30A U45G | 0.000279 ± 6.7e-05 | 0.000752 ± 0.00013 | 
A14G G66U C67G | 0.000361 ± 7.9e-05 | 0.00105 ± 0.00021 | 
U30A G43C C58U U69A | < 1e-05 | < 1e-05 | 
G29A C58U C67G | 0.000115 ± 2.9e-05 |  | 
C16U G29A U31G | 0.00216 ± 0.00066 | 0.0232 ± 0.011 | 
G13U G62C | < 1e-05 | < 1e-05 | 
G29U G43C U56C | < 1e-05 |  | 
A14G C61G G66U C67G | 0.000103 ± 2.7e-05 |  | 
A14U U17C A18U C19A G59U G66A | < 1e-05 | < 1e-05 | 
U30G A33G U57C | < 1e-05 | < 1e-05 | < 1e-05
A15U C16U A39C | 5.94e-05 ± 1.6e-05 |  | 
A22G A36G U56C C70G | < 1e-05 | < 1e-05 | 
G29U G38U U57A G59C | < 1e-05 |  | 
G13U U31C G43C | < 1e-05 | < 1e-05 | < 1e-05
G21U U45C C68U | 0.000572 ± 0.0001 | 0.000312 ± 8e-05 | 0.00114 ± 0.00043
G13U U69C | 7.4e-05 ± 2.2e-05 | 0.000149 ± 3e-05 | 0.00027 ± 7.1e-05

Variant | self-cleavage kobs at 640 uM GlcN6P (glucosamine-6-phosphate [1]) [s⁻¹] | self-cleavage kobs at 2500 uM GlcN6P (glucosamine-6-phosphate [2]) [s⁻¹] | self-cleavage kobs at 10000 uM GlcN6P (glucosamine-6-phosphate [3]) [s⁻¹]
A15U U31A G32C | 4.96e-05 ± 2e-05 | 6.02e-05 ± 2.5e-05 | 
C16U U31A A33C U56G C68G | < 1e-05 |  | 
G13C G40U G60U | < 1e-05 |  | < 1e-05
G29U U55A A64G | 0.000889 ± 0.00022 | 0.00375 ± 0.00061 | 
C16U C61A G63U | < 1e-05 |  | 
G29C G35A G41C G63U C68G | < 1e-05 |  | 
G13U G32A U46A | 4.17e-05 ± 1.9e-05 | 8.03e-05 ± 2.3e-05 | 
A14G U45G C58U G62A | < 1e-05 | < 1e-05 | 
U30C G59C G63U | < 1e-05 |  | 
C16U A36U G38U U46G | < 1e-05 | < 1e-05 | < 1e-05
G29C C58U U69A | 5.92e-05 ± 2.8e-05 |  | 
C16U G35U U55A | < 1e-05 |  | 
G26U C71A | 0.000733 ± 0.0002 | 0.000394 ± 0.0001 | 
A15U G29A C68U | 5.07e-05 ± 1.3e-05 | 7.12e-05 ± 2.1e-05 | 
C16A U30G G35A C50A | < 1e-05 |  | < 1e-05
G13C G59A | < 1e-05 |  | < 1e-05
G13U U45G C67G | < 1e-05 |  | 
A15U U31C A39C | 4.66e-05 ± 1.3e-05 | 0.000126 ± 2.4e-05 | 
A14G C16A U56A | 0.00547 ± 0.0015 | 0.00293 ± 0.0013 | 
A15U G41A G44U C50U | < 1e-05 |  | 
A14G A39U G41U G51A G59A | < 1e-05 |  | 
C16U U47A G62U | < 1e-05 |  | 
A14G A33U G35C | < 1e-05 |  | 
A14U C34U A52G | < 1e-05 | < 1e-05 | < 1e-05
U30A U46G U55G | 0.000157 ± 3.5e-05 | 0.000349 ± 6.6e-05 | 

Variant | self-cleavage kobs at 640 uM GlcN6P (glucosamine-6-phosphate [1]) [s⁻¹] | self-cleavage kobs at 2500 uM GlcN6P (glucosamine-6-phosphate [2]) [s⁻¹] | self-cleavage kobs at 10000 uM GlcN6P (glucosamine-6-phosphate [3]) [s⁻¹]
C16U G41A C71A | 7.7e-05 ± 2.1e-05 | 0.000279 ± 7.1e-05 | 
G13U A36G U47C | < 1e-05 |  | 
A15C C58A C67G C71G | 4.54e-05 ± 1.8e-05 |  | 
A14C U30C G38U A39U A53U U55G | < 1e-05 | < 1e-05 | 
G29A G35C A48G | < 1e-05 |  | 
A15C C16G U55C C61G | < 1e-05 |  | 
A14U A33U C50G G66U | 0.0013 ± 0.00063 | 6.05e-05 ± 2.7e-05 | 
A14G U31G C67G | 6.87e-05 ± 2.7e-05 | 5.23e-05 ± 1.9e-05 | 
U30A A53U C67G | 6.37e-05 ± 2.6e-05 | 4.68e-05 ± 2.2e-05 | 0.000271 ± 6.3e-05
A15U U30A C68A | 0.000134 ± 5.1e-05 | 0.000121 ± 4.8e-05 | 
A15U C16G U46C | < 1e-05 |  | 
A14U A36C G44A U55C C61A | < 1e-05 |  | 
C16U A33G C68G | 5.07e-05 ± 2.3e-05 |  | 
U30G A39C U54G | 0.0002 ± 3.1e-05 | 0.00053 ± 8.2e-05 | 0.00136 ± 0.0002
A15C U56A U65G | 5.97e-05 ± 2.3e-05 | 0.000177 ± 6.3e-05 | 0.000562 ± 0.00012
A15U U30A A53U C58A U65C U69A C71G | 4.92e-05 ± 2e-05 |  | 
G13U A15G A52C | < 1e-05 | < 1e-05 | 
A14C U45A U56C | 8.23e-05 ± 3.9e-05 | 0.000421 ± 0.00012 | 
G29U G40C A52G C58A C68A | < 1e-05 | < 1e-05 | 
G29A G38A G43C | < 1e-05 |  | 
A15G U31G A39U G60U | < 1e-05 | < 1e-05 | 
G29U A33C U49G A64U | < 1e-05 |  | 
G13C G59U C67A C71U | 5.98e-05 ± 2.4e-05 |  | 
A14U A36C G37A G38A | < 1e-05 |  | 
C16U U45A C70G | 0.000277 ± 6e-05 | 0.000385 ± 9.2e-05 | 

Variant | self-cleavage kobs at 640 uM GlcN6P (glucosamine-6-phosphate [1]) [s⁻¹] | self-cleavage kobs at 2500 uM GlcN6P (glucosamine-6-phosphate [2]) [s⁻¹] | self-cleavage kobs at 10000 uM GlcN6P (glucosamine-6-phosphate [3]) [s⁻¹]
G29A G40U G41C | < 1e-05 |  | 
C16A G41U G59A | < 1e-05 | < 1e-05 | 
A15U U30G U69A | 0.000116 ± 2.5e-05 | 0.000105 ± 2.9e-05 | 
A14U U30C U49A C50A C70G | 8.96e-05 ± 2.3e-05 |  | 
C16U G51U A64G C68A C71A | < 1e-05 | < 1e-05 | 
A15U U49C C68G | 0.00159 ± 0.00057 |  | 
A15C G41C A48G | < 1e-05 |  | 
C16A G43U | < 1e-05 |  | < 1e-05
G29U A36G A53U G62A | < 1e-05 | < 1e-05 | 
A15G U30A A39U | 0.00404 ± 0.0016 | 0.00871 ± 0.0024 | 0.0247 ± 0.0076
A14C U31G G32A C70G | 6.55e-05 ± 1.4e-05 | 8.05e-05 ± 2e-05 | 
G21U U46G U49C | < 1e-05 | < 1e-05 | 
A14G A15C U31C G40C U54A | 4.07e-05 ± 1e-05 | 0.000142 ± 3.5e-05 | 5.3e-05 ± 1.6e-05
A15G U57A | 0.000105 ± 2e-05 | 0.000107 ± 2.8e-05 | 0.000392 ± 5.3e-05
A15U A52G C58U | < 1e-05 |  | 
U30A G44C U45G A48C U57A | < 1e-05 |  | 
U30A G41U A48U | < 1e-05 | < 1e-05 | 
C16G U54A U65G | 0.000305 ± 0.00011 | 0.000707 ± 0.00023 | 
C16U C67G C70U | 5.74e-05 ± 2e-05 | 7.27e-05 ± 2e-05 | 
G29U U46C G62C C71G | < 1e-05 | < 1e-05 | 
G13U G38U | < 1e-05 |  | 
C16U U46C G62U | < 1e-05 |  | 
A14C A42U G63A | < 1e-05 |  | 
G21A C70U | 0.00594 ± 0.0022 | 0.00398 ± 0.0016 | 
